Results as given in patent publication US20240052048A1.

B1: GSK2857916 (positive control antibody, not coupled to the toxin molecule) (antibody, V domains shown)
VH: QVQLVQSGAEVKKPGSSVKVSCKASGGTFSNYWMHWVRQAPGQGLEWMGATYRGHSDTYYNQKFKGRVTITADKSTSTAYMELSSLRSEDTAVYYCARGAIYDGYDVLDNWGQGTLVTVSS
VL: DIQMTQSPSSLSASVGDRVTITCSASQDISNYLNWYQQKPGKAPKLLIYYTSNLHSGVPSRFSGSGSGTDFTLTISSLQPEDFATYYCQQYRKLPWTFGQGTKLEIK
B2: human BCMA (recombinant antigen, tag not stated for the assay), Q02223 1-54 (receptor, UniProt Q02223 1-54, looked up)
chain: MLQMAGQCSQNEYFDSLLHACIPCQLRCSSNTPPLTCQRYCNASVTNSVKGTNA

Columns and labels:
[1] = target: cyno-BCMA-Fc (cyno (monkey)); test: ELISA (OD450), GSK2857916 titrated up to 10 µg/mL on Monkey BCMA-Fc; EC50 table in the figure
[2] = target: cyno-BCMA-His (cyno (monkey)); test: ELISA (OD450), GSK2857916 titrated up to 10 µg/mL on Monkey BCMA-His; EC50 table in the figure
[3] = target: human-BAFF-Fc (human), Q9Y275; test: ELISA (OD450), plate coated with BAFF 2 µg/ml, human BCMA titrated up to 10 µg/mL; EC50 table in the figure; conditions: remark: other sources report otherwise
[4] = target: human-BAFF-Fc (human), Q9Y275; test: ELISA (OD450), plate coated with BAFF 8 µg/ml, human BCMA titrated up to 10 µg/mL; EC50 table in the figure; conditions: remark: other sources report otherwise
[5] = target: human-BAFF-Fc (human), Q9Y275; test: ELISA (OD450), plate coated with BAFF 1 µg/ml, human BCMA titrated up to 10 µg/mL; EC50 table in the figure; conditions: remark: other sources report otherwise
[6] = target: human-BAFF-Fc (human), Q9Y275; test: ELISA (OD450), plate coated with BAFF 4 µg/ml, human BCMA titrated up to 10 µg/mL; EC50 table in the figure; conditions: remark: other sources report otherwise

Sequence of human-BAFF-Fc (human), Q9Y275 (Q9Y275 134-285 limits assumed): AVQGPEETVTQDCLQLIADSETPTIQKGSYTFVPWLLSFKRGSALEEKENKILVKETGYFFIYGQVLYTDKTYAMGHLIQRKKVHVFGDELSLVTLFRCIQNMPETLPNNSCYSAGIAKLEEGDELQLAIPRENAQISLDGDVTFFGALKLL

Binder	EC50 [1] [µg/mL]	EC50 [2] [µg/mL]	EC50 [3] [µg/mL]	EC50 [4] [µg/mL]	EC50 [5] [µg/mL]	EC50 [6] [µg/mL]
B1	0.336	0.463				
B2			0.553	0.697	0.586	0.559
